In paper PMC2362355, “The two phyto-oestrogens genistein and quercetin exert different effects on oestrogen receptor function”:

Biological target: oestrogen receptor (ER), recombinant human (human, UniProt P03372 1-595)
Assay: EMSA; 10 nM oestradiol; supershifted by anti-ER HC-20; 20 mM HEPES pH 7.9, 60 mM KCl, 5 mM MgCl2, 2 mM DTT, 10% glycerol, 100 ug (unit prefix not given) BSA, 380 fmol ER, 6 ng ERE, 20 ul; 20 C 20 min then 37 C 15 min; 4% native PAGE in 90 mM Tris-borate, 2.5 mM EDTA pH 8.3
Conditions: protein: commercial; label: 32P end label (T4 PNK); (only one strand printed, described as complementary strands, 27 bp)

Chain of oestrogen receptor (ER), recombinant human (P03372 whole entry): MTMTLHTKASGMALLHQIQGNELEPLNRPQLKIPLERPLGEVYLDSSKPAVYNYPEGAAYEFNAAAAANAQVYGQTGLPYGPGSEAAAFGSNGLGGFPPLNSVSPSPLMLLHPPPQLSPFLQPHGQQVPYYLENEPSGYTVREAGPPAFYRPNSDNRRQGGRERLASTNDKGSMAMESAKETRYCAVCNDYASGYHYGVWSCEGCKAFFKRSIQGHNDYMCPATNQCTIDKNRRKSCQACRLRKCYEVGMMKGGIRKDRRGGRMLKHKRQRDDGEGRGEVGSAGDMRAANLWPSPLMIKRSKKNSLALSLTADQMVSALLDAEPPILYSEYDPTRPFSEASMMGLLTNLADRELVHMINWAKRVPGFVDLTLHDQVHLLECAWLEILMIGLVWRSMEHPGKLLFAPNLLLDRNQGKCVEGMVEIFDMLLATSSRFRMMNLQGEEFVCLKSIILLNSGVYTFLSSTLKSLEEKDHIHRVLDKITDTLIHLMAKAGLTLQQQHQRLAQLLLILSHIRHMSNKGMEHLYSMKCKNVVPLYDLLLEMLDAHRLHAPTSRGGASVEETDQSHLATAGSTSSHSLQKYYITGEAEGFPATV

B1: consensus ERE 27 bp (dsDNA)
DNA 1: GATCCAGGTCACAGTGACCTGGGCCCG
DNA 2: CGGGCCCAGGTCACTGTGACCTGGATC
  binding result: binds
